Measured values reported in US20230070786A1 (SPIBER TECHNOLOGIES, published 2023).

Target: the molecule itself
Assay: size exclusion chromatography, self-association
Description: The inventors designed a minispidroin composed of NT from E. australis MaSp1 and CT from A. ventricosus MiSp bracketing a short repetitive region from E. australis. The chimeric NT2RepCT protein was produced at unprecedented high levels in shake flask E. coli cultures and the yield after purification was around 125 mg protein/L cell culture. Nearly all protein was soluble after expression and lysis, and bound efficiently to the Ni-NTA column (FIG. 2A). The eluate contained >95% pure NT2RepCT and the size of the protein on the SDS PAGE gel corresponded well to the expected molecular mass (33 kDa) (FIG. 2A). Size-exclusion chromatography indicated a mass of 100 kDa (FIG. 6), in good agreement with a dimer (due to the constitutive dimeric nature of CT) and a non-globular structure of the repetitive part.
A Superdex 200 HR column (Amersham Biosciences) was used to run 200 μl of purifed protein sample in TBS running buffer (20 mM Iris, 150 mM NaCl and 1 mM EDTA, pH 8.0). The flow rate used was 0.5 ml/min. Molecular mass standards Ribonuclease A (13.7 kDa), Carbonic anhydrase (29 kDa), Ovalbumin (43 kDa), Conalbumin (75 kDa), Aldolase (158 kDa) and Ferritin (440 kDa) were used for calibration.

B1: NT2RepCT (other)
chain: MGHHHHHHMSHTTPWTNPGLAENFMNSFMQGLSSMPGFTASQLDDMSTIAQSMVQSIQSLAAQGRTSPNKLQALNMAFASSMAEIAASEEGGGSLSTKTSSIASAMSNAFLQTTGVVNQPFINEITQLVSMFAQAGMNDVSAGNSGRGQGGYGQGSGGNAAAAAAAAAAAAAAAGQGGQGGYGRQSQGAGSAAAAAAAAAAAAAAGSGQGGYGGQGQGGYGQSGNSVTSGGYGYGTSAAAGAGVAAGSYAGAVNRLSSAEAASRVSSNIAAIASGGASALPSVISNIYSGVVASGVSSNEALIQALLELLSALVHVLSSASIGNVSSVGVDSTLNVVQDSVGQYVG
notes: Engineered chimeric spidroin made in E. coli and tested with its His tag; also called chimeric minispidroin NT2RepCT; chimeric NT2RepCT protein
**Q.** Does B1 bind?
**A.** binds
